The values that follow come from the DeepSol protein solubility set.

The nature of the series: soluble on expression in E. coli; label from the status in PepcDB or PDB records.
“MLTIKNLHASVHNNQILRGVNLTINAGEVHAIMGPNGSGKSTLASVLAGREDYAIVDGDVRYFDEDLFELSPEDRAAKGLFLAFQYPVEIPGVNNLYFLKTAVNSIRKTRGEAPFDAIDLMGLVKEKLALVDMDDKFLKRSVNEGFSGGEKKRNEILQMLMLDPRLAILDETDSGLDIDALQTVAKGVNSLRNKERAILLVTHYQRLLDYIKPDFVHVLVNGRIVLSGDQSLALELEKKGYGWL”: the “soluble on expression in E. coli” value is “soluble”.
The result for “MLTPMFCLAHISDMHLSPLPKPSFFELFGKRLTGYLNWQKKRKGQMATNTLETLIEALKKKNPDHLVISGDLVNLALDKEFEQARNWLLNQGQPQNISLTFGNHDAYVRGAFQKACTLFQPWITGDFPQKNAPPFPYIRIRKNVAIIGASSAIATPPFQASGYFGKMQAQALSQLLNEAARRNLFRVIMIHHPPFHHATSWHKKLWGIERFLEVIKHHGCELILHGHTHLPTLNIIKGKMGKIPIVGVASAAQAFGDTPPPAGFNFFSIEQFNQQWHCQLQRYSLINQNNEVACTETIDLLEHHHHHH” reads “not soluble”.
The result for “MLTRTDGKGSKVLLIAAMDTKGTEARYIESWLAKAGFTTLIMDMGIRGKRPGPVAVTRDEVLRAAGKTWDDIQNVTSEGDAVDIMISGGVKCALALYKADLIQGVISLGGTMGTTLGTGVMRAFPIGFPKVMISTIAAKDTEAFIGNMDIFMLNSVSDLAGLNRITRKVLRNGALAIAGLVREREFHDEFSRPLAVLTTLGTTEATAARMRIHFEAWGYESVTFHTTGTGGQAMERMVNFEPVSAVVDLSLHELIDHHFGGAFDPGPERGRAALQKGIPTVIVPGNIDFLVTGPMAQAQIYFPGRRGHKHNANITCVRTSLEEIQRIAEIMAGYCNESTGPVAVLVPMKGFSCLDHEDGPQPDPEGPRVFAETFARALTRTIHFETVPLHINDEAFSEVIVGALQKIGGLRKIEADRLPSRQPATWSPYSSVHTLDRFSGNQHTTTETTGDALAALEHHHHHH” reads “not soluble”; that for “MLTVALLALLCASASGNAIQARSSSYSGEYGSGGGKRFSHSGNQLDGPITALRVRVNTYYIVGLQVRYGKVWSDYVGGRNGDLEEIFLHPGESVIQVSGKYKWYLKKLVFVTDKGRYLSFGKDSGTSFNAVPLHPNTVLRFISGRSGSLIDAIGLHWDVYPTSCSRC”, “soluble”; that for “MLTVTFTVSNTGDRAGAAVPQVYPGFPNTTIDRCVRELKAFRRVELEPGQRQTVTVALTRRDLSYWDILPHPLRSYAVGSILEHHHHHH”, “not soluble”.
Under “MLVCNPYEVVIHGTTSSGKIFRPSDWAERLCGILSSFTKDHRLSYSKWVRPILVDNIRCVAVDKKLETDNPQMFRFLMDFAADNDLRVIDCKALLEEREQGGQNNPADEHVMLAQAIEEKHAAEKAQEQTASGASYVLREIGADDTATAFAALSVLRSALTDINRFTEQINKVQRPQGYRLLGIFEEGKHNAVAVCGFREACTLASGRHIHIDDIVTLPQSRRKGYASRLLEEVRKIGAETGVTKIHLNVHVNHDRADAHRLYFKNGFEICAYHFRCDPK” stands “not soluble”.
For the sequence “MLVGHARKDITPTEPFYLLGYKTELRNQPAKGIHDHIYINALLFYDDKGNECFLATGDLLELEDIVAADIRQKISRKYGIAMDHVIIGVTHDHHSVRDYHRTWEFGKFSQTYYDFFVDSFVQAFEDCRETLTDVTVQYGQQEIFGFYSNRNHANKPSDNAVSVIKFIADGHAVAGIVNMAVHSTVLGPDNQYLTADLAGNTCTKLAKEWGFFPLMLIGCAADSSNRYERQGRDFAELERASSGLAVAISKIQTPKRLCLGKIQTLTLSHEVVNDKPIYDRKLRTMINDLRSGVIKAIGSQSVEAIVEKCEDQLNKPQFHDLLSLQLLDIGELRLFVFPGELASAGAKKLTSFDRLEHHHHHH”, the “soluble on expression in E. coli” value is “not soluble”.
The result for “MLYDLAKQRKTVRKFKEEKPSIEKLMYCLKVANEAPSGMNAQPWRFLVVKDEETKRQIRETCEKAEKDFYENVRGKLKEWLNENSFNWKKPFLEEAPYLLLVFSKKDAPYSRESVWLAIGYLLLALEEQGLGTVPYTPPNPNELTKIVNTPSDLRFEVILPVGYPDDPKPKYPREEMKVSFNHF” reads “not soluble”; that for “MLYNMDERFEIKDIVAREVIDSRGNPTVEVEVITKGNGYGSAIVPSGASTGTHEALELRDKEKRFGGKGVLMAVENVNSIIRPEILGYDARMQREIDTIMIELDGTPNKSRLGANAILAVSLAVAKAAAATAKIPLYKYLGGFNSYVMPVPMMNVINGGKHAGNDLDLQEFMIMPVGATSISEAVRMGSEVYHVLKNVILEKYGKNAVNVGDEGGFAPPLKTSREALDLLTESVKKAGYEDEVVFALDAAASEFYKDGYYYVEGKKLTREELLDYYKALVDEYPIVSIEDPFHEEDFEGFAMITKELDIQIVGDDLFVTNVERLRKGIEMKAANALLLKVNQIGTLSEAVDAAQLAFRNGYGVVVSHRSGETEDTTIADLSVALNSGQIKTGAPARGERTAKYNQLIRIEQELGLSKYAGRNFRCPF”, “soluble”; that for “MMDAKALWQRYQDWLYYHEGLGLYLDISRMRFDDSFVESLQSKFDKAFADMAALEKGAIANPDENRMVGHYWLRNPDLAPSPELTQEIVQTLEQIEAFADQVHTGAVHPPKESRFTDIISIGIGGSALGPQFVAEALSPDSPPLNIHFIDNTDPRGIDRVLSQINNLASTLVLVISKSGGTPEPRNGMIEVKKAYAAKNLDFSKYAVAVTGPDSNLDKVAKSEGWLARFSMYDWVGGRTSEMSAVGLVPAALQGIDIRAMLEGAKEMDDATRVADLKNNPAALLALAWYYSGKGKGGKDMVVLPYKDSLLLFSRYLQQLVMESLGKEKDLDGKIVYQGIAVYGNKGSTDQHAYVQQLREGVPNFFATLIEVLEDRQRKSPEIDPGVTSGDYLCGFLLGTRQALYENNRDSITVTIHQVNPRTVGALIALYERAVGLYASLVNINAYHQPGVEAGKKAAAVILDLQQKVMTVLQTERKALSISEIADKAGASEQIEAIYKILRHLHTNNRGVVLTGDLAKPGSLTVSLS”, “not soluble”.
Regarding “MMEDNKMTESEMKFRDTTIRNFFDKEDRLKSIPGQKKKKLVLLEHLISKLNAENQYTEKEINTFIKQYHDDFCTIRREFIVQGFMNREDNMYCINGREVWTKWEELK”, the “soluble on expression in E. coli” value was “not soluble”.
The result for “MMEKSTLLQIKRDIETCVGQKIQLKANKGRKKAFIREGIVENTYPSIFVVKFENDYDTVRRVSYSYTDILTKAVEITVCEDNRKIQVS” reads “soluble”; that for “MMEPTIHLRQAKAGDIPAILEIEQECFQEDSFSREQFVYLICRSKGTFYVVVEQERIIAYVSLLFHAGTRYLRIYSIAVHPDCRGRKLGQLLMERTIETALDCRAVKITLEVKESNTPAIKLYMKNGFIPVGVKPNYYHDGSDAIYMQRHM”, “not soluble”; that for “MMEVLTGPERRRRWSVEEKLALVRESFEPGKTVSMVARQHGVNPNQVFHWRKLYQDGSLSAVSAGEEVVPASELAEALKLVRVLQRMLGKKTMENEILREAVEYGRAKKWIARSPSLPGDDQLEHHHHHH”, “not soluble”.
Under “MMFPAKIISLRGGATEAIVSADLDRKTELAQETATRWFERRLSLRSPLDPPLPERPGRPEKPELVPPTAVERRSLHSVKGRIALLHAIAHIELNAVDLALDIVARYASEPVPHSFFDGWMQVAFEEAKHFRLVRDRLVSLGADYGDLPAHDGLWQAAHSTRNDLTARLAVVPLILEARGLDVTPSLQAKMRETGDLESAAVLDVIYNDEKGHVAIGAKWFRFLCAREKKDPAATFRQLVRSNFRGPLKPPFNDLARAEAGLTPSFYRSLTSVSHSLEHHHHHH” stands “not soluble”.
Under “MMGSKMASASRVVQVVKPHTPLIRFPDRRDNPKPNVSEALRSAGLPSHSSVISQHSKGSKSPDLLMYQGPPDTAEIIKTLPQKYRRKLVSQEEMEFIQRGGPE” stands “soluble”.
As to “MMHTWFECKIRYEKVMENGMNKKVTEPYLVDALSFTEAEARIIEEITPYISGEFTVSDIKRANYSELFPSEEDAADRWFKCKLFFITLDEKSGAEKKTSTTVLVQASDLRDAVKKLDEGMKGTMADYVIASVAETAIMDVYPYEAEPDVKPEFPDAGKTE”, the “soluble on expression in E. coli” value is “not soluble”.
As to “MMIFEKIHTVPTSEELTNKAFKRAARAMSGKTIDGRDSRFKANESMLLTAANIFTDNLANIVRRFPSFEQLPRFYYELTDILVGVEKLKMSLASVDWASRKIHEVARSYVGKIRESDIPEPVRKEAFGRLASIINSINKDLLFLNEARNILRKLPDVQDEPTIVIAGYPNVGKSSFVSKITGATPEIAPYPFTTKGVTIGHFTRDGVRYQVMDTPGLLDRPMAERNDIERQAITAIHYLDAVVMVVIDPSESCGYELQDQRRLLAEIRENFNLPLLVVANKADRPEFMKMDEVELNMSTITGEGIEQVMDRLLEMIEEKRLRSLEEAPSEESDDESALLEHHHHHH”, the “soluble on expression in E. coli” value was “soluble”.
For “MMKILPHVTNETAPLRTVVLGLPDSTGGAPALADTYDAKSYESVLRGTYPSDEDIKIEMDAVLDVLVRHGIEVLRPEPIANYNQIFARDVAFAIDDKLFVSNLIADRARESEAFSPIWDCVGESHLVRLSEDIHAEGGDILLYDDILFIGTYLQKDYPSFKTARTNARAVDFFREFFPHKTIIPIELIKHDTDPMRSVLHLDCAFQPVGRSRAIVYRQGFLHSESFGLITEIFGGRDNLFEITPEEAYMMNTNIFSISPDTVISEQNFVRLNNHLREAWGMTVEEVPYAEISKQGGLLRCSTMPLVRE”, the “soluble on expression in E. coli” value is listed as “not soluble”.
The result for “MMKRQLHRMRQLAQTGSLGRTPETAEFLGEDLLQVEQRLEPAKRAAHNIHKRLQACLQGQSGADMDKRVKKLPLMALSTTMAESFKELDPDSSMGKALEMSCAIQNQLARILAEFEMTLERDVLQPLSRLSEEELPAILKHKKSLQKLVSDWNTLKSRLSQATKNSGSSQGLGGSPGSHSHTTMANKVETLKEEEEELKRKVEQCRDEYLADLYHFVTKEDSYANYFIRLLEIQADYHRRSLSSLDTALAELRENHGQADHSPSMTATHFPRVYGVSLATHLQELGREIALPIEACVMMLLSEGMKKEGLFRLAAGASVLKRLKQTMASDPHSLEEFCSDPHAVAGALKSYLRELPEPLMTFDLYDDWMRAASLKEPGARLQALQEVCSRLPPENLSNLRYLMKFLARLAEEQEVNKMTPSNIAIVLGPNLLWPPEKEGDQAQLDAASVSSIQVVGVVEALIQSADTLFPGDINFNVSGLFSAVTLQDTVSDRLASEELPSTAVPTPATTPAPAPAPAPAPAPALASAATKERTESEVPPRPASPKVTRSPPETAAPVEDMARRSPRGATGR” reads “soluble”; that for “MMLCFQEVALNGGNILSKFTERLLTILYPPICPGCKQRVSAYGTICSECWKDLQFITKPYCPVMGVPFVYDMGDGFLSGEALQNSLPFSRVRSVIVHKGVAQSLVTRLKYGDHVELASFMANWMVSAGREIVDDCDIIISVPLHFRRFLKRRYNQSAELARYIARVQKKEFKPGWLVRCRHTRPQVNLSARERKLNVLNAFEVPRKVKKYLKGRSILLIDDVFTTGATVTAAAATLKRAGARQVDVLTFSRVLKEASIFPNS”, “not soluble”; that for “MMLEQLIQLKQDLIDGSKVEKPSLDDKQIDEMDILVSEALEFNKELKFKLFNKGFVENVTGRVHYINFEQQKLHVKDQNDNTVYINMNNIIRVIYND”, “not soluble”.
Under “MMLFSNLIKENQKIWNAYLHHDFVKKLEDKSLKQENFLFYLKQDYIYLLNYAKCYARLALNSNTAKELRFAMKFQNYIVEGEMELHRAILSLGINADELDIKDESLVNIAYSRYMLSVGENGDFLDMLVALSACAIGYAKIGAEIINRLKNENLKDHPYKEWILTYGSENFQNEAKEFEDFVNSYTSSVGAQKFQKLSEIFHTVTRLEVAFWEHSLRMELNLLEHHHHHH” stands “soluble”.
